# Test results from paper PMC7046470.
# Assays:
# HA-Rtn2 (maize) [1] = assay: co-IP; anti-HA affinity gel on lysates of Arabidopsis protoplasts (wild type; also atg5-1) transiently expressing the proteins, incubated with or without 2 mM DTT or 5 μg/mL tunicamycin for 3 hr; 150 mM Tris-HCl pH 7.5, 150 mM NaCl, 1.5% Triton X-100, 2 hr at 4°C
# [2] = target: HA-Rtn2(mAIM1,2,5,6) (maize)
# HA-Rtn2 (maize) [3] = target: HA-Rtn2 (maize)
# GFP-Atg8a = assay: co-immunoprecipitation, densitometry of immunoblots; details: Arabidopsis protoplasts; immunoprecipitation with anti-HA antibodies; three biological replicates; parent: est. 1.0; read off a plot
# [4] = target: maize Atg8a, split-ubiquitin two-hybrid fusion; assay: split-ubiquitin Y2H; details: colonies on -LWHA medium versus -LW medium, bait pBT3N-ATG8a, parent: est. 52, read off a plot
substance,measurement,setting,value
GFP-Atg8a (natural protein),fold increase in binding upon DTT treatment against no DTT,HA-Rtn2 (maize) [1],3 fold
same,percent of Arabidopsis protoplasts (DTT and ConA) with autophagic bodies labeled with both GFP-Atg8a and Rtn2(mAIM1)-mCherry (mCherry fusion),HA-Rtn2(mAIM1) (maize),42%
same,"percent of Arabidopsis protoplasts (DTT and ConA) with autophagic bodies labeled with both GFP-Atg8a and Rtn2(mAIM1,2,5,6)-mCherry (mCherry fusion)",[2],23%
same,percent of Arabidopsis protoplasts (DTT and ConA) with autophagic bodies labeled with both GFP-Atg8a and Rtn2-mCherry (Rtn2 as mCherry fusion),HA-Rtn2 (maize) [3],54%
HA-Rtn2 mAIM1,ratio to parent,GFP-Atg8a,0.87
"HA-Rtn2 mAIM1,2,5,6",ratio to parent,GFP-Atg8a,0.02
"HA-Rtn2 mAIM1,5",ratio to parent,GFP-Atg8a,0.38
"HA-Rtn2 mAIM1,5,6",ratio to parent,GFP-Atg8a,0.22
"maize Rtn2, split-ubiquitin two-hybrid fusion mAIM1",response,[4]; prey pPR3C-Rtn2(mAIM1),33%
"maize Rtn2, split-ubiquitin two-hybrid fusion mAIM1,2,5,6",response,"[4]; prey pPR3C-Rtn2(mAIM1,2,5,6)",7%
"maize Rtn2, split-ubiquitin two-hybrid fusion mAIM1,5",response,"[4]; prey pPR3C-Rtn2(mAIM1,5)",16%
"maize Rtn2, split-ubiquitin two-hybrid fusion mAIM1,5,6",response,"[4]; prey pPR3C-Rtn2(mAIM1,5,6)",12%
